From PMC3285597

Tested on: human Oct-1 E30D/M33L (rodent-like);VP16ΔC;HCF-1N380 (beta-propeller domain) (Homo sapiens;HSV-1;Homo sapiens)
Test: EMSA
Details: 10 mM Hepes pH 7.9, 75 mM KCl, 1 mM EDTA, 10 mM DTT, 1 µg poly-dI-dC, up to 4 µl reticulocyte lysate, room temperature 20 min; 4% native gel in 1x …

## ICP0 (OCTA+)TAATGARAT probe
  binding signal (fold reduction of VIC vs wild type Oct-1): > 100
